PMC5834252, “Targeting scFv-Fc-scTRAIL fusion proteins to tumor cells” (Oncotarget, 2018)

Biological target: T1, Mouse TRAIL-R2-Fc (mouse, UniProt Q9QZM4 53-180)
T1 construct: mouse TRAIL-R2; Named in the materials only; source: bought: Sino Biological Inc. (50412-M03H)
Experiment: ELISA; Fc fusion proteins of human and mouse TRAIL receptors coated (200 ng/well); 40 nM scTRAIL units; detected with anti-FLAG-HRP; relative OD450
Settings: both partners purified

T1 sequence (Q9QZM4 53-180): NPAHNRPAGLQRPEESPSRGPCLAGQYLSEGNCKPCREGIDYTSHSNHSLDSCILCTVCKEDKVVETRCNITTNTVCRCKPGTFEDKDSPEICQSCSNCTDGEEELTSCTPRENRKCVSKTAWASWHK

binding result: binds
B1: Fc-scTRAIL (Fc fusion, human)
chain: GPQRVAAHITGTRGRSNTLSSPNSKNEKALGRKINSWESSRSGHSFLSNLHLRNGELVIHEKGFYYIYSQTYFRFQEEIKENTKNDKQMVQYIYKYTSYPDPILLMKSARNSCWSKDAEYGLYSIYQGGIFELKENDRIFVSVTNEHLIDMDHEASFFGAFLVGGGPQRVAAHITGTRGRSNTLSSPNSKNEKALGRKINSWESSRSGHSFLSNLHLRNGELVIHEKGFYYIYSQTYFRFQEEIKENTKNDKQMVQYIYKYTSYPDPILLMKSARNSCWSKDAEYGLYSIYQGGIFELKENDRIFVSVTNEHLIDMDHEASFFGAFLVGGGPQRVAAHITGTRGRSNTLSSPNSKNEKALGRKINSWESSRSGHSFLSNLHLRNGELVIHEKGFYYIYSQTYFRFQEEIKENTKNDKQMVQYIYKYTSYPDPILLMKSARNSCWSKDAEYGLYSIYQGGIFELKENDRIFVSVTNEHLIDMDHEASFFGAFLVG
notes: human TRAIL, first protomer of single-chain TRAIL (scTRAIL), amino acids 118-281; single glycine residue as linker between the TRAIL protomers; human TRAIL, second protomer of scTRAIL, amino acids 118-281; human TRAIL, third protomer of scTRAIL, amino acids 118-281; scTRAIL is fused to the C-terminus of the human gamma1 Fc; disulfide-linked dimer (hexavalent TRAIL); also called non-targeted …
